Measured values reported in patent publication US20250027073A1.

Target: Flu-m158-66-TCR, on Jurkat T cells

Question: With “Influenza M158-66 ([…]) presented by HLA-A0201, single-chain trimer of pMHC displayed on the lentiviral surface (from UniProt P61769 21-119) (peptide-MHC)” as the substance, how does the percent of T cells GFP+ read?
Answer: > 87%
